Source: patent publication US20240376207A1 (JIANGSU HENGRUI PHARMACEUTICALS, published 2024)
Each block holds one binder with its values, some of them ahead of it.

How the values were obtained:
[1] = molecular target: T1, his-tagged cynomolgus monkey PVRIG (cyno-PVRIG-his) recombinant protein (cynomolgus monkey); test: SPR (Biacore X100), antibody captured on Protein A chip, 1:1 fit
T1 construct: expressed in HEK293, purified by Ni-NTA; also called Monkey PVRIG-his; cynomolgus monkey PVRIG recombinant protein
T1 chain: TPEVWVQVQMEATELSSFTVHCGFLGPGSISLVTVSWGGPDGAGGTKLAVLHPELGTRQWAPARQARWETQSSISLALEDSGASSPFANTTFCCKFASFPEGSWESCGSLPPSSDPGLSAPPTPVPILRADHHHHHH

[2] = molecular target: T2, human PVRIG antigen (AcroBiosystem, PVG-H52H4) (human, UniProt Q6DKI7 41-171, limits assumed); test: as above
T2 sequence (looked up): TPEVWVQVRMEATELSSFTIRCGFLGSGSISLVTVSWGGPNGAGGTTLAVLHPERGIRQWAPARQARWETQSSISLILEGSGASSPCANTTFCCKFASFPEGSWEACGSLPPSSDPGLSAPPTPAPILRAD

[3] = molecular target: T3, his-tagged human PVRIG (h-PVRIG-his) recombinant protein (human, UniProt Q6DKI7 41-171, limits assumed); test: ELISA, coated antigen
T3 construct: bought from Acrobiosystems; also called Human PVRIG-his; human PVRIG recombinant protein; not shown: his tag
T3 sequence (looked up): T2 sequence (looked up)

[4] = molecular target: T4, human PVRIG expressed on cells (human, UniProt Q6DKI7 41-326); test: FACS, cells overexpressing target
T4 construct: whole, on cells; also called Human PVRIG FACS; cells overexpressing human PVRIG
T4 sequence (looked up): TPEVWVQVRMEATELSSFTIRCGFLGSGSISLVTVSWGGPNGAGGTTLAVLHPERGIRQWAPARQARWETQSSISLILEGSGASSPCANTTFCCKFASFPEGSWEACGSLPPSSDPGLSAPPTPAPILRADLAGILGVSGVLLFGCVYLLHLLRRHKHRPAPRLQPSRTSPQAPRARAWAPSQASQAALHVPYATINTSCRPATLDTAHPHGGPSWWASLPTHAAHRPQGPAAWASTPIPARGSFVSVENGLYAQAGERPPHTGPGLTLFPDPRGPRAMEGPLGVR

[5] = molecular target: T4, human PVRIG expressed on cells; test: FACS, HEK293 cells overexpressing target
Description: The expression plasmid carrying human or cynomolgus monkey PVRIG gene sequence was transfected into HEK293 cells, and the over-expressing stable transfection monoclonal cell strain was obtained by antibiotic screening and infinite dilution. Overexpressing cells were seeded into a 96-well plate at 2×10⁵ cells/per well. The cells were centrifuged at 300 g for 5 min, the supernatant was then removed, 100 μL of the test antibody was added, and the mixture was incubated at 4° C. for 1 h. The mixture was centrifuged, the supernatant was removed, the plate was washed 3 times with 200 μL of wash buffer (PBS+2% FBS), and then 100 μL of an anti-human IgG secondary antibody (Invitrogen, A-11013) labeled with Alexa Fluor 488 diluted at 1:500 was added. The mixture was incubated at 4° C. for 1 h. The plate was centrifuged, and the supernatant was removed. The plate was washed 3 times with 200 μL of wash buffer (PBS+2% FBS). The cells were resuspended in 100 μL of PBS and tested on a flow cytometer (BD FACS Calibur or BD FACS Canto_II).
Binding of the humanized anti-PVRIG antibodies to human or cynomolgus monkey PVRIG was detected by using a flow cytometer according to the method of Example 5.

[6] = molecular target: T4, human PVRIG expressed on cells; test: cell-based or functional assay
[7] = molecular target: T5, mouse IgG2a Fc-tagged human PVRIG (h-PVRIG-mIgG2a Fc) recombinant protein (human, UniProt Q6DKI7 41-171, limits assumed); test: competition ELISA; human PVRIG coated, competitor human PVRL2
T5 construct: bought from Acrobiosystems; not shown: mouse IgG2a Fc tag
T5 sequence (looked up): T2 sequence (looked up)

Kd [1]: 7.05 nM | koff [1]: 0.181 s⁻¹ | kon [1]: 2.56e+07 M⁻¹ s⁻¹ | Kd [2]: 0.00782 nM | koff [2]: 0.00013 s⁻¹ | kon [2]: 1.67e+07 M⁻¹ s⁻¹
B1: humanized anti-PVRIG/TIGIT bispecific antibody 1708-20H5 (bispecific antibody, human IgG4 S228P, kappa)
heavy: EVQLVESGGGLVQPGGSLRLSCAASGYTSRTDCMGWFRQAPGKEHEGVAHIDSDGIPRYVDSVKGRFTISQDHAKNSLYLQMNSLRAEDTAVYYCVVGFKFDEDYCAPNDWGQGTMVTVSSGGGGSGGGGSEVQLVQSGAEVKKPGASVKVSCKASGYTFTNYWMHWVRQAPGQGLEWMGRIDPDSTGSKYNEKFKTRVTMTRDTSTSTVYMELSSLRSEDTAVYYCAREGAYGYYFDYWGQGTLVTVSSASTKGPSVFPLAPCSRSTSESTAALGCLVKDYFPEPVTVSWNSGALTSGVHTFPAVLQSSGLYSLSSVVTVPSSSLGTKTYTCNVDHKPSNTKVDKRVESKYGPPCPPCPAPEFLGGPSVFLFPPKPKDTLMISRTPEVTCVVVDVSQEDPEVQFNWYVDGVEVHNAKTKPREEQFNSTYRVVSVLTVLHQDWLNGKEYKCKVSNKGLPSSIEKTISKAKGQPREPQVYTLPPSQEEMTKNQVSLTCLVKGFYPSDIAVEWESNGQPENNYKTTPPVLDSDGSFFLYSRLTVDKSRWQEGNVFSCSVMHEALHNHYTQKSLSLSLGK
light: DIQMTQSPSSLSASVGDRVTITCRASENIYSYLAWYQQKPGKSPKLLIYNARTLAEGVPSRFSGSGSGTDFTLTISSLQPEDFATYYCQYHSGSPLPFGGGTKVEIKRTVAAPSVFIFPPSDEQLKSGTASVVCLLNNFYPREAKVQWKVDNALQSGNSQESVTEQDSKDSTYSLSSTLTLSKADYEKHKVYACEVTHQGLSSPVTKSFNRGEC

Kd [1]: 31.9 nM | koff [1]: 0.581 s⁻¹ | kon [1]: 1.82e+07 M⁻¹ s⁻¹ | Kd [2]: 0.706 nM | koff [2]: 0.00912 s⁻¹ | kon [2]: 1.29e+07 M⁻¹ s⁻¹
B2: humanized anti-PVRIG/TIGIT bispecific antibody 1708-30H2 (bispecific antibody, human IgG4 S228P, kappa)
heavy: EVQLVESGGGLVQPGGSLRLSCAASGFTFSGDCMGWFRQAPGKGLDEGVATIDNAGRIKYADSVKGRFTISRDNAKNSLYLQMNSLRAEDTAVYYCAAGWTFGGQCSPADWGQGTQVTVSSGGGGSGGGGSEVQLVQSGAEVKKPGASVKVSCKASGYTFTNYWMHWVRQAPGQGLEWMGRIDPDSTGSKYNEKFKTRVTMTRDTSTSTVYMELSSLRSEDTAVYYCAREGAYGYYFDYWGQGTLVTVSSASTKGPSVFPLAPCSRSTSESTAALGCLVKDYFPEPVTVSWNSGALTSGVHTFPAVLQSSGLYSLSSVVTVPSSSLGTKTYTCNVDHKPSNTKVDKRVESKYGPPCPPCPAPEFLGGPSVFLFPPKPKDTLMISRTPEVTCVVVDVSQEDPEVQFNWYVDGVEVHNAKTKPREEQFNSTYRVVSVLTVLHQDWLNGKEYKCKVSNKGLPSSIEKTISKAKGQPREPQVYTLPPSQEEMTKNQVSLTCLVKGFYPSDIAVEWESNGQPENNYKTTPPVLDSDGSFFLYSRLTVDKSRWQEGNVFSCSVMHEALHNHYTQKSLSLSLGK
light: B1 light

EC50 [3]: 1.86 nM | EC50 [4]: 3.15 nM | EC50 [5]: 0.16 nM | PVRIG reporter gene cell activity EC50 [6]: 1.38 nM | IC50 [7]: 0.797 nM
B3: positive antibody Tab5 (antibody, human IgG4 S228P, kappa, F234A L235A, V domains shown)
VH: EVQLVESGGGVVKPGGSLRLSCAASGFTFGTSSMNWVRQAPGKGLEWVAVISFDGTEIHYADSVKGRFTISRDNSKSTVFLQMNSLRPDDTALYYCAKGSGNIYFYSGMDVWGQGTTVTVSS
VL: DIQMTQSPSTLSASVGDRVTITCRAGQSISGWLAWFQQKPGKAPNLLIYETSTLESGVPSRFSGSGSGTEYTLTISSLQPDDFATYYCQQYYSYPLTFGQGTKVEIKR
notes: Variable regions of CPA.7.021 (WO2016134333A1) on human IgG4 (S228P/F234A/L235A/K447A) and human kappa constant regions
